# Test results as given in patent EP4782465A1 (Shanghai Mabgen Biotech Ltd., dated 2026).
# B1: Fusion protein 1 (insulin analog 1 + L2 + IgG2 Fc1) (Fc fusion)
# chain: FVNQHLCGEHLVEALYLVCGERGFHYGGGGGGSGGGGGIVEQCCESICSLEQLENYCGGGGGQGGGGQGGGGQGGGGGECPPCPAPPVAGPSVFLFPPKPKDTLMISRTPEVTCVVVDVSHEDPEVQFNWYVDGVEVHNAKTKPREEQFNSTFRVVSVLTVVHQDWLNGKEYKCKVSNKGLPAPIEKTISKTKGQPREPQVYTLPPSREEMTKNQVSLTCLVKGFYPSDIAVEWESNGQPENNYKTTPPMLDSDGSFFLYSKLTVDKSRWQQGNVFSCSVMHEALHNHYTQKSLSLSPG
# Molecular target: Insulin receptor of C2C12 mouse myoblasts (mouse, UniProt P15208 28-1372)
# Sequence (P15208 28-1372): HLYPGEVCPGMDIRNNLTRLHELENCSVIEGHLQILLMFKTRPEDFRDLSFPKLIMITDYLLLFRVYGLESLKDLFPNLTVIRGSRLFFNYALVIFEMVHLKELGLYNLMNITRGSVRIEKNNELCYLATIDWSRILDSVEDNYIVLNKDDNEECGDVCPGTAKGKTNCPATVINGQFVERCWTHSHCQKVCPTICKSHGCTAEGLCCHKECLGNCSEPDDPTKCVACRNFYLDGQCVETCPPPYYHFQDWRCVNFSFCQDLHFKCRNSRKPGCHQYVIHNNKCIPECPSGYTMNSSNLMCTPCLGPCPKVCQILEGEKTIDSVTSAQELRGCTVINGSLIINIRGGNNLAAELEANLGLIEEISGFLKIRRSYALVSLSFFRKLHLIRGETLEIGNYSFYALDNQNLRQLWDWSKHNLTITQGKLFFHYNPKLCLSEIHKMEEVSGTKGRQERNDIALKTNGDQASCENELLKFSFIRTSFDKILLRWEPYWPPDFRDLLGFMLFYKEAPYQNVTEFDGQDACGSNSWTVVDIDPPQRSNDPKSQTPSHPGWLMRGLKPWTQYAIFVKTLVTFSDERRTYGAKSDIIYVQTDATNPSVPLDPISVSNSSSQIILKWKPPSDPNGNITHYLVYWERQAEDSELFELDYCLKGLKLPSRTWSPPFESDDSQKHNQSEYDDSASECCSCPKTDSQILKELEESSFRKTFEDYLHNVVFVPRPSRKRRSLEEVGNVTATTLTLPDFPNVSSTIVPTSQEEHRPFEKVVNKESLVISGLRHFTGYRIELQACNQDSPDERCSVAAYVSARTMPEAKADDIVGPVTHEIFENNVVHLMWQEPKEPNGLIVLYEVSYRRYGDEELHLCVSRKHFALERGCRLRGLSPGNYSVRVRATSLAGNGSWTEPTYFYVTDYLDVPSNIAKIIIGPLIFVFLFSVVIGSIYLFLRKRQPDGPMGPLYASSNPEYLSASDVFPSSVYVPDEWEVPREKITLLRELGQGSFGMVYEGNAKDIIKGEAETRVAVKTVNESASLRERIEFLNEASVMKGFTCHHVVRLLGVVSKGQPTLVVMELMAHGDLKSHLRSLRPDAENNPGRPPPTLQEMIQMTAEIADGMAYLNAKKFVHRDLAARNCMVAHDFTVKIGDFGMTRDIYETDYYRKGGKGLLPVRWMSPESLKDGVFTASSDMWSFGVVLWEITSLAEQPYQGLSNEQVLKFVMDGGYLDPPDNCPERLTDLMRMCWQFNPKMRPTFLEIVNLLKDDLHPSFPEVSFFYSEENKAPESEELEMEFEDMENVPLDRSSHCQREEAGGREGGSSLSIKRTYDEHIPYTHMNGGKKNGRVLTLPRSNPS
# Experiment: cell-based or functional assay
binder,measurement,value
B1,AKT phosphorylation activity (EC50),490 nM
